# Assay: protease stability score; higher = more stable; yeast display proteolysis, trypsin and chymotrypsin;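 further: log10 excess protease needed over predicted unfolded state with 0 meaning unfolded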
row,Sequence,protease stability score
1,DEKKERQRAKELVKAMQHGDESKLKELLDENARLNVGDHKFHGMEEAHKTMRELWTRVDHLTVKSVDVTNGKIDIVVVFRHNGKNDRQVLEADVHNGRVRQQQIKSE,-0.14
2,DEKKIKDLARRVMQYYVSGNTEEVEKLGKDDVQVHFGDQTYHGVEQVKKVVKEFKEYGVELQLKDIQYDGDRADAEVEVHAGGHTWKFTVTVQLDGGKVDNLTFHVSDEAKKAIEHG,0.982
3,DEKKIKDLLLKLIEMYVSGNKEEVKKVGKDDVELHAGNQTYHGYEQMAKMAEKLKRYGVKLQITDAKVEGDKLTAKVDFHYGGETQKLEFVVQADGGKVDRMKIELSEEVVKVARKG,0.377
4,DEKKIKEYVHELNRAFQNGDEDRLNQMMDKNVRAQYGDKEYHGRENAKKVMKDFRDQFDHLEIHSVNVRGDRVDIEAEAHNNGRTEHWIITIRLHNGHMTSIVIRKS,-0.319
5,DEKKIYDLLKKMVEAYVSGNAEEVRKLLKDDGTLDVGDQQYHGVEQVTKAAEEFQKYGVELHLTDYRFDGDRVDVKAVAHLGGNTWEFTVTVQADGGKVDRLVFHVSEEAVKYIQKG,1.28
6,DEKKIYEVLHKAVQMYVSGNDEEVRKLLKKDAEIEVADHKYRGVDEVVKVVDQFRKYGVELQIDDAKFDGNKVNAELTLHAGGETWKFTVTAEADGGKVDKVTFHVTEEVKKRIQKG,-0.045
7,DEKKKAEEQHKKLEHALREGDPDEAKKMMDPNVRAQVGETKFHGREQMAKFWMTFNKRADHVEFELRDLHIENGRIRIHAVVRADVNGQTVRINIRIILTKHGDQFVAVRIEQK,0.499
8,DEKKLEELLRKLFEAAQKNNVDEMRKFLAPDVQYKYGDKRYEGEKVADTAVKVMREVGAEVRVKEEEVKGGEAEATFQYHKGDKTVETTARVRYEGDKVKEVEVKLSEEVKKILEQG,0.128
9,DEKKLEEVAKKVMDAMRKGDSETLVKLGKPDVTFKVADIEFKGQDQLRKYYKLDQDVGVELHLKEEKKEGNKFTMVYDARFGGTQDTVEVEVEVKDEKVDKARAKFTEEYAKHIQKG,0.586
10,DEKKLHELLLKMVQYYVSGHTEKVKEMGKDDVNLNAGDYTYHGVEQVATVADRMRQYGVKLEVKNRRQEGDRLEVEVEFHVGGQTVTVTFKVKADGGKVDEMRIDFSEEADKMARKG,-0.157
11,DEKKLKDKAETLVENFKTGNEEEFSRMADENATLVVGDKTLRGREDLQTFISEFKKTVDHVEVRHVTADNGRVTIDMVVDINGRRVRVHVVIKFKNGHIKDVRVDPRMKRAMDQ,0.905
12,DEKKLKELAEELVKADRTGNPDMIKKLGKPDVEFHVANVTMHGSEQVYKYYEKVQRQGNEVHIKRQEVRGDHVEVHYTVKVGGTEVEVTMRLHAKDHKVDKAEAHFNKEYLDHVKKG,0.413
13,DEKKLLDLARVALEYLQRGNSDQFAKMLDEGGQMNVGDTQINGSDQVKKYVKKFKDQGVHVEYKEQEEKGDTVTVKTEAELGDAKVTFEVHYVAKGDRVERVEVRMNKEQITEFKKS,0.272
14,DEKKLLEIAKEVADYVRNGNADQVAKLGKEGIQANFGDEQVNGPDQMREYVKKVKDLGLHAEYKEEKYEGDTVELHTQAHLGDVTADFTVTYIVKGDKLDKVEVRFNKEQMKKFKTS,0.007
15,DEKKLQELLKKAFEAALNGDEDKLRKLLAPNVKYKYGDTEREGEDAVRLVMQIVKHIGVEVKKQEEEVKGGRMRAVFRYDNGSQTVQTTAEVQYEGDKVKEVRVEITDEIKKVMQRG,1.17
16,DEKKQAEDFFDTWVEIVKSGDEEKAQQMADPNVRFQIGDKSWRGREDFKKFLKTQLKRADHIRFEVQRITVRPNHIEVQFRIVIDNNGQDSRDTLTFVIKVNGDRLRLVEMHEG,1.43
17,DEKKQAKRLHETMDRILTQGNPHEAKHLFDKDARIDVGDKKVHGREQIAKSLAERVRQVDHIHNQVDHVEVDNGQLNMTVRFQQETNGKTHDYSAQHRVDIDGDKVKVVKVTHQ,-0.336
18,DEKKQQELAETFWKIFKTGDEEKLKQMMPQDVRARYGDKSVTGRDRIVTTIKKRVKRADHINVKHISVHNGKIHIDAVIVVDGRKQRDTINIKMRNGHIKNINVDPEKDKQNFS,-0.217
19,DEKKTKELLKEAMKALHNGNEEKVKKLGGPDVEVHAFNYRNRGPEAMVEMARLAQRVGTEFQYREERFEGNRVKTVVEVTVGGDTVRYEVQATVEGGEVKRWEAHVDEKFIEHVEKS,0.174
20,DEKKVEKVVREALKAMINGDKDKVRKLLKPDVQFHAGDVEMHGVDQVVKYYEKIKRQGVEMHIKEVKVTGNEAEVKYDLRADGTEATVKAKVVVENEKVDHVTAELTKTYDDLVKKS,-0.107
21,DEKKVEQAEQWIRNLQTGDPDKANDMFDPNAEITVGDHVVHGREEFKDRMEKDMRNMRIKFEDVHASVKNGRVTVSVDQVDTNNGKPKRYRYNLTIDLRNGKVTEIVNKEDK,0.066
22,DEKKVHEVLKKLRKALEQGNVDEMVKMGKPDVEFHFFDTKIEGLDQLHEYYKTMKDHGAELHVEETKVEGNKVEVVYVLKLGGTQVKVTAQIEIKDERVVRARAENTEEYKKRVKKG,0.359
23,DEKKVKEIAKKAFEYAVKGNEEQLQKLVKPNVDYEYVDEKYEGEDVVKKMVRLLKKVGAEVKIKRYEVKGDTVKADFDYNKGDKTVRTTAEVVYNGDKITQARLELTDEVKKIMHQG,0.681
24,DEKKVKELIDQVVEAIQKGDVEHLLKLGKPDVTFTVGDVEIRGLEHLKKYYKQVKDDGAELHVKKVEVKGNTAQVHYDMKYGGTKATVTVNIEAKDHKVDRAEAKMDKDYLKYVRDG,0.644
25,DEKKVKELLVRAVQAYVNGNTEEVKKLLKEDVQLHAVNHTYHGVEQLLKVVKRMKEYGIKLQVTDHKVDGDKVDVKVQFHAAGETKEVTFRVQADGGKVDKVEVHVTEEVQKLAEKG,1.05

# Source: the NTF2 design screens of Basanta et al. (2020)
